The values that follow come from patent US20110212528A1.

This test concerns the target GAL4/CfEcR-DEF (Choristoneura fumiferana). In words: cell-based or functional assay.

As to “VP16/HsRXRβ-EF substitution mutant A528S (receptor)”, the fold induction (maximum, reporter gene transactivation, NIH3T3 cells, GS-E) turned out to be 21 fold.

“VP16/HsRXRβ-EF substitution mutant A495S (receptor)” came in with a fold induction (maximum, reporter gene transactivation, NIH3T3 cells, GS-E) of 30 fold.
